According to PMC5887372 (Nucleic Acids Research, 2018):

B2: DNMT1 RFTS domain (aa: 351–600) (domain or fragment)
chain: PKCIQCGQYLDDPDLKYGQHPPDAVDEPQMLTNEKLSIFDANESGFESYEALPQHKLTCFSVYCKHGHLCPIDTGLIEKNIELFFSGSAKPIYDDDPSLEGGVNGKNLGPINEWWITGFDGGEKALIGFSTSFAEYILMDPSPEYAPIFGLMQEKIYISKIVVEFLQSNSDSTYEDLINKIETTVPPSGLNLNRFTEDSLLRHAQFVVEQVESYDEAGDSDEQPIFLTPCMRDLIKLAGVTLGQRRAQAR
B3: DNMT1 RFTS domain E397A (domain or fragment)
chain: PKCIQCGQYLDDPDLKYGQHPPDAVDEPQMLTNEKLSIFDANESGFASYEALPQHKLTCFSVYCKHGHLCPIDTGLIEKNIELFFSGSAKPIYDDDPSLEGGVNGKNLGPINEWWITGFDGGEKALIGFSTSFAEYILMDPSPEYAPIFGLMQEKIYISKIVVEFLQSNSDSTYEDLINKIETTVPPSGLNLNRFTEDSLLRHAQFVVEQVESYDEAGDSDEQPIFLTPCMRDLIKLAGVTLGQRRAQAR
B4: DNMT1 RFTS domain E384A (domain or fragment)
chain: PKCIQCGQYLDDPDLKYGQHPPDAVDEPQMLTNAKLSIFDANESGFESYEALPQHKLTCFSVYCKHGHLCPIDTGLIEKNIELFFSGSAKPIYDDDPSLEGGVNGKNLGPINEWWITGFDGGEKALIGFSTSFAEYILMDPSPEYAPIFGLMQEKIYISKIVVEFLQSNSDSTYEDLINKIETTVPPSGLNLNRFTEDSLLRHAQFVVEQVESYDEAGDSDEQPIFLTPCMRDLIKLAGVTLGQRRAQAR

Columns and labels:
[1] = molecular target: T1, ubiquitin (UniProt P0CG48 1-76); assay: NMR titration
[2] = molecular target: T1, ubiquitin; assay: ITC
[3] = molecular target: B2; assay: ITC
[4] = molecular target: B3; assay: ITC
[5] = molecular target: DNMT1 RFTS domain Y399G (human, UniProt P26358 351-600, Y399G); assay: ITC
[6] = molecular target: DNMT1 RFTS domain I442G (human, UniProt P26358 351-600, I442G); assay: ITC
[7] = molecular target: DNMT1 RFTS domain E384A/E397A (human, UniProt P26358 351-600, E384A | E397A); assay: ITC
[8] = molecular target: B4; assay: ITC

B1: DNMT1_351 (aa: 351–1616) (domain or fragment)
chain: PKCIQCGQYLDDPDLKYGQHPPDAVDEPQMLTNEKLSIFDANESGFESYEALPQHKLTCFSVYCKHGHLCPIDTGLIEKNIELFFSGSAKPIYDDDPSLEGGVNGKNLGPINEWWITGFDGGEKALIGFSTSFAEYILMDPSPEYAPIFGLMQEKIYISKIVVEFLQSNSDSTYEDLINKIETTVPPSGLNLNRFTEDSLLRHAQFVVEQVESYDEAGDSDEQPIFLTPCMRDLIKLAGVTLGQRRAQARRQTIRHSTREKDRGPTKATTTKLVYQIFDTFFAEQIEKDDREDKENAFKRRRCGVCEVCQQPECGKCKACKDMVKFGGSGRSKQACQERRCPNMAMKEADDDEEVDDNIPEMPSPKKMHQGKKKKQNKNRISWVGEAVKTDGKKSYYKKVCIDAETLEVGDCVSVIPDDSSKPLYLARVTALWEDSSNGQMFHAHWFCAGTDTVLGATSDPLELFLVDECEDMQLSYIHSKVKVIYKAPSENWAMEGGMDPESLLEGDDGKTYFYQLWYDQDYARFESPPKTQPTEDNKFKFCVSCARLAEMRQKEIPRVLEQLEDLDSRVLYYSATKNGILYRVGDGVYLPPEAFTFNIKLSSPVKRPRKEPVDEDLYPEHYRKYSDYIKGSNLDAPEPYRIGRIKEIFCPKKSNGRPNETDIKIRVNKFYRPENTHKSTPASYHADINLLYWSDEEAVVDFKAVQGRCTVEYGEDLPECVQVYSMGGPNRFYFLEAYNAKSKSFEDPPNHARSPGNKGKGKGKGKGKPKSQACEPSEPEIEIKLPKLRTLDVFSGCGGLSEGFHQAGISDTLWAIEMWDPAAQAFRLNNPGSTVFTEDCNILLKLVMAGETTNSRGQRLPQKGDVEMLCGGPPCQGFSGMNRFNSRTYSKFKNSLVVSFLSYCDYYRPRFFLLENVRNFVSFKRSMVLKLTLRCLVRMGYQCTFGVLQAGQYGVAQTRRRAIILAAAPGEKLPLFPEPLHVFAPRACQLSVVVDDKKFVSNITRLSSGPFRTITVRDTMSDLPEVRNGASALEISYNGEPQSWFQRQLRGAQYQPILRDHICKDMSALVAARMRHIPLAPGSDWRDLPNIEVRLSDGTMARKLRYTHHDRKNGRSSSGALRGVCSCVEAGKACDPAARQFNTLIPWCLPHTGNRHNHWAGLYGRLEWDGFFSTTVTNPEPMGKQGRVLHPEQHRVVSVRECARSQGFPDTYRLFGNILDKHRQVGNAVPPPLAKAIGLEIKLCMLAKARESASAKIKEEEAAKD
[1]
  binding result: binds

## B2
[2]
  Kd: 26 µM

## B3
[2]
  fold reduction of binding against wild-type RFTS: ~2 fold

## B4
[2]
  fold reduction of binding against wild-type RFTS: ~2 fold

B5: UHRF1 UBL domain (aa: 1–76) (domain or fragment)
chain: MWIQVRTMDGRQTHTVDSLSRLTKVEELRRKIQELFHVEPGLQRLFYRGKQMEDGHTLFDYEVRLNDTIQLLVRQS
[3]
  Kd: 41.3 µM
[4]
  binding result: binds
[5]
  binding result: binds
[6]
  binding result: binds
[7]
  binding result: binds
[8]
  binding result: binds
